Experiments:
[1] = test system: Tumor Cells Expressing MMP-14 (HT-1080, LNCaP, MDA-MB-231, PC3); assay: Binding of IgGs to tumor cells, immunocytochemistry and flow cytometry; format: cell-based, human; conditions: ICC versus flow cytometry
Description: The ability of twelve biotinylated-MMP-14 binding IgGs to bind to tumor cells expressing MMP-14 was evaluated using both immunocytochemistry (ICC) and flow cytometry. The cell lines tested were HT-1080 (a human fibrosarcoma cell line), LNCaP (human, prostate, carcinoma), MDA-MB-231 (human, breast, adenocarcinoma), or PC3 (Human prostatic cancer cells) cells. MMP-14 is expressed on HT-1080 cells (Cancer Res. (2005) 65(23):10959-69.). MMP-14 is expressed on PC-3 cells (Oncol Rep. (2006) 15(1):199-206). LNCaP express MMP-14 (Endocrinology (2003) 144(5):1656-1663) at a relatively low level. […] MMP-14 is expressed by MDA-MB-231 cells (Int J Cancer. (2005) 114(4):544-554.).
Cells (2×10^5) were cultivated on cell culture slides in complete medium. At confluency, cells were washed with PBS and fixed with 4% paraformaldehyde for 30 minutes at room temperature. Endogenous peroxidases were blocked with 3% hydrogen peroxide for 20 minutes. Nonspecific binding sites were blocked by incubation with 10% heat inactivated human serum 10% normal rabbit serum for 30 minutes at room temperature. Cells were then incubated with biotinylated or non-biotinylated MMP-14 binding proteins at 10 μg/ml for 2 hours at room temperature. […] Binding was detected with the substrate AEC+(25 minutes at room temperature in the dark). […]

MMP-14 [2] = target: T1, MMP-14 (Homo sapiens, UniProt P50281); assay: IC50 for MMP-14 inhibition by Fabs and IgGs; format: biochemical; conditions: Fab
Description: MMP-14 binding proteins can be characterized in assays that measure their modulatory activity toward MMP-14 or fragments thereof in vitro or in vivo. For example, MMP-14 can be combined with a substrate such as Mca-Pro-Leu-Ala-Cys(Mob)-Trp-Ala-Arg-Dap(Dnp)-NH2 under assay conditions permitting cleavage by MMP-14. The assay is performed in the absence of the MMP-14 binding protein, and in the presence of increasing concentrations of the MMP-14 binding protein. The concentration of binding protein at which 50% of the MMP-14 activity (e.g., binding to the substrate) is inhibited is the IC50 value (Inhibitory Concentration 50%) or EC50 (Effective Concentration 50%) value for that binding protein.

MMP-14 [3] = target: T1, MMP-14; assay: Selection and phage ELISA screening of anti-MMP-14 Fabs; format: binding; conditions: Fab from FAB310 phage display library
Outline: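 The FAB310 phage library was panned on biotinylated MMP-14, alone or complexed with bead-bound TIMP-2, at 500 nM and then 100 nM over three rounds. Phage was eluted with 2.5 μM TIMP-2, then 100 mM TEA. For ELISA, 95 clones per round were screened against 1 μg/ml biotinylated MMP-14 captured on streptavidin in TRIS/5 mM CaCl2, pH 7.5.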

MMP-16 [4] = target: T2, MMP-16 (Homo sapiens, UniProt P51512); assay: Cross-reactivity of Fabs with MMP-16 (Example 9); format: biochemical; set-up: key: X: Do not inhibit MMP-16 or MMP-24 at [I] = 100 nM level; Y: partially inhibit at [I] = 100 nM level; conditions: Fab, 100 nM final inhibitor concentration, 5 nM MMP-16
Description: (§1) For the studies summarized in Table 15, 1 μM of anti-MMP-14 Fab/IgG (100 nM final inhibitor concentration) were incubated with 5 nM of MMP-16 or 5 nM of MMP-24 for 30 minutes at 30° C., 10 μM of substrate was added, and the MMP-16 activity was measured.

MMP-24 = MMP-24 (Homo sapiens, UniProt Q9Y5R2); assay: Cross-reactivity of Fabs with MMP-24 (Example 9); format: biochemical; set-up: key to MMP-24 (cross-reactivity, class symbol): X: Do not inhibit MMP-16 or MMP-24 at [I] = 100 nM level; Y: partially inhibit at [I] = 100 nM level; conditions: Fab, 100 nM final inhibitor concentration; 5 nM MMP-24
Description: as §1

MMP-16 [5] = target: T2, MMP-16; assay: Cross-reactivity of Fabs and IgGs with MMP-16 (Example 8); format: biochemical; set-up: key to MMP-16 (cross-reactivity, class symbol): X: Does not inhibit MMP-16 at [I] = 100 nM level; conditions: 5 nM MMP16, 30 minutes at 30° C., 10 μM substrate
Description: For the studies summarized in Tables 13 and 14, 100 nM anti-MMP-14 Fab/IgG were incubated with 5 nM MMP16 for 30 minutes at 30° C., 10 μM of substrate was added, and the MMP-16 activity was measured.

T2 sequence (P51512 120-607): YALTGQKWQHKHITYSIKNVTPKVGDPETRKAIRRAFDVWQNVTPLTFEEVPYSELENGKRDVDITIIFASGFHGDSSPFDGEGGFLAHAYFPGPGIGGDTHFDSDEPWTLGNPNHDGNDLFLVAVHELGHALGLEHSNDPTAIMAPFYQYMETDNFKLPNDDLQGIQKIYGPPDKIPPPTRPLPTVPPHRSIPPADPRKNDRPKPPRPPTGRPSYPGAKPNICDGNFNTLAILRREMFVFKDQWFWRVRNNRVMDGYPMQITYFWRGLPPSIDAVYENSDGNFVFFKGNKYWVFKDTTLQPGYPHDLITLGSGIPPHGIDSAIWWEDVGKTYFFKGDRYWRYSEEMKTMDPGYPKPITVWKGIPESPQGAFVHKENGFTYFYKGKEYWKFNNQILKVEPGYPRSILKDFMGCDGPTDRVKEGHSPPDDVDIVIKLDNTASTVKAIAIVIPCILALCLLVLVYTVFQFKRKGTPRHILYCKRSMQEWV
Sequence of MMP-24 (Q9Y5R2 156-645): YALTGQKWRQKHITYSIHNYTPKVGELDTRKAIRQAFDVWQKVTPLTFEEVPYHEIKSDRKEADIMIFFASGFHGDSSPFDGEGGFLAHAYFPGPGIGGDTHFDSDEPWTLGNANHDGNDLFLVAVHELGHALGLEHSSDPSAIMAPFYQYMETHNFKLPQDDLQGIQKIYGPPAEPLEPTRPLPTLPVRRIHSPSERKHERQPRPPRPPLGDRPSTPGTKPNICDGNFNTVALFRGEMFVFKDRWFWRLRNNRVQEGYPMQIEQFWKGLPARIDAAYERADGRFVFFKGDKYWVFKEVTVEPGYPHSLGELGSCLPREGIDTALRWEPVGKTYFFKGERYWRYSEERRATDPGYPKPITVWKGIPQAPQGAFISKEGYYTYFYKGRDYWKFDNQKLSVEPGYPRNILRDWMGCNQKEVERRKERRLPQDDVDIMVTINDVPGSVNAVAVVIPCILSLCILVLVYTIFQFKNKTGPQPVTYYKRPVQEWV

bind to and inhibit human MMP-14 (MMP-14 [2])	bind to human MMP-14 (MMP-14 [3])	MMP-16 (cross-reactivity, class symbol) (MMP-16 [4])	MMP-24 (cross-reactivity, class symbol) (MMP-24)	MMP-16 (cross-reactivity, class symbol) (MMP-16 [5]; Fab 100 nM)	MMP-16 (cross-reactivity, class symbol) (MMP-16 [5]; IgG 100 nM)	Molecule	Staining, remark on method [1]
bind to and inhibit human MMP-14	bind to human MMP-14					M0031-F01: human antibody (Fab, IgG) that binds and inhibits MMP-14; HC SEQ ID NO: 146, LC SEQ ID NO: 147 (antibody, V domains shown, Synthetically generated peptide) VH: EVQLLESGGGLVQPGGSLRLSCAASGFTFSTYEMHWVRQAPGKGLEWVSSIYSSGGWTGYADSVKGRFTISRDNSKNTLYLQMNSLRAEDTAVYYCARSQQYYDFSSRYYGMDVWGQGTTVTVSS VL: QSELTQPPSVSGTPGQRVTISCSGTSANIGRNAVHWYQQLPGTAPKLLIHSNNRRPSGVPDRFSGSKSGTSASLAISGLQSEDEADYYCAAWENSLNAFYVFGTGTKVTVL	(only positive in ICC)
bind to and inhibit human MMP-14	bind to human MMP-14	X	X	X	X	M0038-F08: human antibody (Fab, IgG) that binds and inhibits MMP-14; HC SEQ ID NO: 158, LC SEQ ID NO: 159 (antibody, V domains shown, Synthetically generated peptide) VH: EVQLLESGGGLVQPGGSLRLSCAASGFTFSRYKMWWVRQAPGKGLEWVSGIRPSGGLTRYADSVKGRFTISRDNSKNTLYLQMNSLRAEDTAVYYCARRGDYVGGFDYWGQGTLVTVSS VL: QDIQMTQSPGTLSLSPGERATLSCRASQSVSSSYLAWYQQKPGQAPRLLIYGASSRATGIPDRFSGSGSGTDFTLTISRLEPEDFAVYYCQHYGGSQAFGGGTKVEIK	(only positive in immunocytochemistry, ICC)

From US8106168B2, “Metalloproteinase binding proteins” (Dyax Corp., priority 2005, dated 2012)
